In patent US20230248820A1 one finds fold decrease in binding affinity against 8I21 without the mutation data, which are given here for 1 substance.

The target in the experiment is HCMV pentameric complex gH/gL/pUL128/pUL130/pUL131A (Pentamer), wild type, Merlin strain (HCMV Merlin strain) (UniProt Q6SW67). Kind of experiment: method not stated.

On to “8I21 with HCDR3 Trp105 mutated to alanine (antibody)”, for which the fold decrease in binding affinity against 8I21 without the mutation was greater than 150 fold.
